Test results from PMC3485338.

Assays:
[1] = molecular target: T1, Spo0A-DBD-6xHis (Clostridium difficile 630Δerm) (UniProt I6ZTX1); assay: EMSA; details: EMSA: 10 mM Tris-HCl pH 7.6, 1 mM EDTA, 50 mM NaCl, 1 mM DTT, 5% glycerol, 200 ug/mL BSA, 200 cpm/uL 32P-DNA, 20 min at 30 C; 8% native PAGE in 1x TAE
T1 sequence: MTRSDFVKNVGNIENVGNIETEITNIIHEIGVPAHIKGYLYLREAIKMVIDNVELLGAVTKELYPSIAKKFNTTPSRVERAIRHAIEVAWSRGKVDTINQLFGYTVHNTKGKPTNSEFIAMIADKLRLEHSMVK

[2] = system: Spo0A-DBD-6xHis (Clostridium difficile 630Δerm); assay: EMSA; details: EMSA: 10 mM Tris-HCl pH 7.6, 1 mM EDTA, 50 mM NaCl, 1 mM DTT, 5% glycerol, 200 ug/mL BSA, 200 cpm/uL 32P-DNA, 20 min at 30 C; 8% native PAGE in 1x TAE

Substance	binding signal (fold lower affinity than PabrB) [2]	further results
CAATTCTGTATTCCATTTATGTATCCCTCCATAACGGTTGCTTCAATAGATCATAATTCGCCAATGACACAAAAAATCCTTTTTATTTTTCGATCTTGGCAGATTTTAATTTTAATTCAAGATATACGCGGGAATCCTTTGAATATTTGTATTTTGGATTTGTCCTGCCGTACTCCTTTGATGTATAAGAGACATCATAATGCTGTTCAAATGATCTAATGAGCTGTTCAATTTCTTCTTGTTTTCCAGCTAGCCTTACCTGTGCCACTTCGTATCCTCCGCTTTCA (double strand) [PcitG]		binding [1]: no binding
PabrB G2A	10	
PabrB G5A	10	
AGGATTTTTAGTAGGATAATAGCTTTATTAAATATTTATAAAATGCTGTTATTTCGGTAGTTTCCAAGACATTACTGACTATAAGAACTAATTCTTACAATCAATAGTAAACAAAATGATTGACGATTATTGGAAACCTTGTTATGCTATGAAGGTAAGGATTTTGTCGAATAATGACGAAGAAAAATATAATTTAAACAAATAAGTATCTCTTGGGAG (double strand) [PabrB]		Kd [1]: < 0.05 µM
PabrB C4A	10	
PabrB		Kd [2]: < 0.05 µM
